Reference: the supplement of paper PMC9112550, “Optimization of the antimicrobial peptide Bac7 by deep mutational scanning” (BMC Biology, 2022)

Tested on: Escherichia coli TOP10
Assay: shrunken log2 fold change of peptide-encoding DNA abundance (4.5 h post-induction vs induction); higher = less antimicrobial activity (less host growth inhibition)
Conditions: time post-induction: 4.5 h; library: site-saturation at positions 5, 18, 19, 20
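Also: peptides expressed intracellularly from a pBAD plasmid library in pooled LB shake-flask culture, induced with 0.3% L-arabinose, DNA abundance read by NGS, three biological replicates, DESeq2 with apeglm shrinkage.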

Compared with RRIRYRPPRLPRPRPRPETGPRP, RRIRGRPPRLPRPRPRPHWEPRP is higher in “shrunken log2 fold change” value: -0.0691 for the first, 0.324 for the second.

First: RRIRARPPRLPRPRPRPQCSPRP
Second: RRIRDRPPRLPRPRPRPPVCPRP
The “shrunken log2 fold change” value of the first is lower: 0.111 for the first, 0.452 for the second.

Compared with RRIRHRPPRLPRPRPRPGGFPRP, RRIRDRPPRLPRPRPRPTDQPRP is higher in “shrunken log2 fold change” value: -0.127 for the first, 0.118 for the second.

Compared with RRIRDRPPRLPRPRPRPFYTPRP, RRIRVRPPRLPRPRPRPSPNPRP is higher in “shrunken log2 fold change” value: -0.687 for the first, -0.271 for the second.

Going from RRIRNRPPRLPRPRPRPDSQPRP to RRIRFRPPRLPRPRPRPHGRPRP, the “shrunken log2 fold change” value rises from -0.0699 to 0.187.

Going from RRIRWRPPRLPRPRPRPCMWPRP to RRIRNRPPRLPRPRPRPTPTPRP, the “shrunken log2 fold change” value rises from -0.0796 to 0.674.

RRIRVRPPRLPRPRPRPANAPRP and RRIRMRPPRLPRPRPRPQYCPRP are within 0.2 log units of each other in “shrunken log2 fold change” value: -0.0677 for the first, -0.0737 for the second.

Going from RRIRYRPPRLPRPRPRPAVYPRP to RRIRGRPPRLPRPRPRPRFEPRP, the “shrunken log2 fold change” value rises from -0.0166 to 0.881.

Compared with RRIRQRPPRLPRPRPRPTCCPRP, RRIRPRPPRLPRPRPRPYNMPRP is lower in “shrunken log2 fold change” value: -0.00785 for the first, -1.44 for the second.

First: RRIRMRPPRLPRPRPRPRKGPRP
Second: RRIRARPPRLPRPRPRPGFTPRP
The “shrunken log2 fold change” value of the first is higher: 0.81 for the first, 0.204 for the second.

RRIRDRPPRLPRPRPRPHRVPRP and RRIRYRPPRLPRPRPRPKQKPRP are within 0.2 log units of each other in “shrunken log2 fold change” value: -0.0141 for the first, -0.0531 for the second.

Compared with RRIRARPPRLPRPRPRPSIGPRP, RRIRKRPPRLPRPRPRPKMKPRP is higher in “shrunken log2 fold change” value: 0.111 for the first, 0.444 for the second.

Compared with RRIRIRPPRLPRPRPRPYTNPRP, RRIRDRPPRLPRPRPRPPRHPRP is higher in “shrunken log2 fold change” value: -0.957 for the first, 0.377 for the second.

First: RRIRHRPPRLPRPRPRPEFCPRP
Second: RRIRIRPPRLPRPRPRPDIAPRP
The “shrunken log2 fold change” value of the first is higher: -0.0591 for the first, -0.659 for the second.

Compared with RRIRKRPPRLPRPRPRPLRSPRP, RRIRARPPRLPRPRPRPTNDPRP is lower in “shrunken log2 fold change” value: 0.962 for the first, 0.297 for the second.

Compared with RRIRFRPPRLPRPRPRPIQMPRP, RRIRVRPPRLPRPRPRPWDEPRP is lower in “shrunken log2 fold change” value: -0.0945 for the first, -0.334 for the second.

RRIRGRPPRLPRPRPRPWQVPRP and RRIRRRPPRLPRPRPRPLHCPRP are within 0.2 log units of each other in “shrunken log2 fold change” value: -0.00145 for the first, 0.0886 for the second.

Going from RRIRGRPPRLPRPRPRPRTIPRP to RRIRGRPPRLPRPRPRPQTRPRP, the “shrunken log2 fold change” value rises from 0.375 to 1.12.

Going from RRIRDRPPRLPRPRPRPYQPPRP to RRIRMRPPRLPRPRPRPPFTPRP, the “shrunken log2 fold change” value rises from -0.0769 to 0.309.

RRIRERPPRLPRPRPRPEYSPRP and RRIRFRPPRLPRPRPRPRIHPRP are within 0.2 log units of each other in “shrunken log2 fold change” value: -0.422 for the first, -0.262 for the second.

Going from RRIRYRPPRLPRPRPRPEKTPRP to RRIRYRPPRLPRPRPRPTFHPRP, the “shrunken log2 fold change” value falls from 0.0635 to -0.649.

Going from RRIRTRPPRLPRPRPRPWWDPRP to RRIRNRPPRLPRPRPRPVYKPRP, the “shrunken log2 fold change” value falls from 0.132 to -0.453.

First: RRIRLRPPRLPRPRPRPYYKPRP
Second: RRIRRRPPRLPRPRPRPNFAPRP
The “shrunken log2 fold change” value of the first is lower: -0.569 for the first, 0.0508 for the second.

RRIRARPPRLPRPRPRPSIHPRP and RRIRTRPPRLPRPRPRPFMMPRP are within 0.2 log units of each other in “shrunken log2 fold change” value: -0.233 for the first, -0.203 for the second.

Going from RRIRERPPRLPRPRPRPCQIPRP to RRIRRRPPRLPRPRPRPLGEPRP, the “shrunken log2 fold change” value rises from -0.193 to 0.144.

Going from RRIRCRPPRLPRPRPRPYCIPRP to RRIRMRPPRLPRPRPRPDSCPRP, the “shrunken log2 fold change” value rises from -0.565 to -0.00101.

Going from RRIRRRPPRLPRPRPRPEKEPRP to RRIRCRPPRLPRPRPRPMLTPRP, the “shrunken log2 fold change” value falls from 0.224 to -0.0319.

Compared with RRIRYRPPRLPRPRPRPGAFPRP, RRIRCRPPRLPRPRPRPEMIPRP is higher in “shrunken log2 fold change” value: -0.805 for the first, 0.12 for the second.

Going from RRIRQRPPRLPRPRPRPELRPRP to RRIRDRPPRLPRPRPRPFTPPRP, the “shrunken log2 fold change” value falls from -0.043 to -0.38.

First: RRIRHRPPRLPRPRPRPGGWPRP
Second: RRIRQRPPRLPRPRPRPGGLPRP
The “shrunken log2 fold change” value of the first is higher: 1.47 for the first, 0.28 for the second.

RRIRNRPPRLPRPRPRPNNRPRP and RRIRARPPRLPRPRPRPLNDPRP are within 0.2 log units of each other in “shrunken log2 fold change” value: 0.113 for the first, 0.0895 for the second.

Going from RRIRERPPRLPRPRPRPHGNPRP to RRIRKRPPRLPRPRPRPGFMPRP, the “shrunken log2 fold change” value rises from -0.0832 to 0.184.

RRIRVRPPRLPRPRPRPTDNPRP and RRIRLRPPRLPRPRPRPVGSPRP are within 0.2 log units of each other in “shrunken log2 fold change” value: -0.363 for the first, -0.165 for the second.

Going from RRIRNRPPRLPRPRPRPRCIPRP to RRIRCRPPRLPRPRPRPIMNPRP, the “shrunken log2 fold change” value falls from -0.256 to -0.911.

Going from RRIRYRPPRLPRPRPRPPFAPRP to RRIRIRPPRLPRPRPRPRHVPRP, the “shrunken log2 fold change” value falls from 0.0915 to -0.163.

First: RRIRARPPRLPRPRPRPFGPPRP
Second: RRIRGRPPRLPRPRPRPKHGPRP
The “shrunken log2 fold change” value of the first is lower: 0.0166 for the first, 0.699 for the second.

Compared with RRIRFRPPRLPRPRPRPCCIPRP, RRIRQRPPRLPRPRPRPCDCPRP is higher in “shrunken log2 fold change” value: -0.313 for the first, -0.0243 for the second.

Compared with RRIRHRPPRLPRPRPRPGDKPRP, RRIRYRPPRLPRPRPRPFWYPRP is lower in “shrunken log2 fold change” value: -0.0257 for the first, -0.234 for the second.

Compared with RRIRYRPPRLPRPRPRPFVKPRP, RRIRPRPPRLPRPRPRPTLWPRP is higher in “shrunken log2 fold change” value: -0.79 for the first, 0.299 for the second.

First: RRIRWRPPRLPRPRPRPQSAPRP
Second: RRIRSRPPRLPRPRPRPEHFPRP
The “shrunken log2 fold change” value of the first is higher: 0.372 for the first, -0.246 for the second.

RRIRWRPPRLPRPRPRPQLHPRP and RRIRFRPPRLPRPRPRPEHCPRP are within 0.2 log units of each other in “shrunken log2 fold change” value: 0.123 for the first, -0.0154 for the second.

Compared with RRIRNRPPRLPRPRPRPLWPPRP, RRIRERPPRLPRPRPRPIQKPRP is lower in “shrunken log2 fold change” value: 0.14 for the first, -0.184 for the second.

Going from RRIRYRPPRLPRPRPRPQMLPRP to RRIRTRPPRLPRPRPRPNPPPRP, the “shrunken log2 fold change” value rises from -0.846 to 0.199.

First: RRIRFRPPRLPRPRPRPEVFPRP
Second: RRIRGRPPRLPRPRPRPPQGPRP
The “shrunken log2 fold change” value of the first is lower: 0.181 for the first, 0.812 for the second.

RRIRVRPPRLPRPRPRPRMTPRP and RRIRRRPPRLPRPRPRPMMPPRP are within 0.2 log units of each other in “shrunken log2 fold change” value: 0.265 for the first, 0.135 for the second.

Compared with RRIRWRPPRLPRPRPRPYYNPRP, RRIRWRPPRLPRPRPRPFNVPRP is higher in “shrunken log2 fold change” value: -1.01 for the first, -0.114 for the second.

RRIRNRPPRLPRPRPRPDTLPRP and RRIRSRPPRLPRPRPRPKCVPRP are within 0.2 log units of each other in “shrunken log2 fold change” value: -0.0286 for the first, -0.138 for the second.

Going from RRIRTRPPRLPRPRPRPITSPRP to RRIRTRPPRLPRPRPRPFYTPRP, the “shrunken log2 fold change” value falls from 0.0903 to -0.373.

Going from RRIRRRPPRLPRPRPRPLEEPRP to RRIRQRPPRLPRPRPRPRVDPRP, the “shrunken log2 fold change” value falls from 0.597 to 0.241.

RRIRDRPPRLPRPRPRPDMKPRP and RRIRARPPRLPRPRPRPQYFPRP are within 0.2 log units of each other in “shrunken log2 fold change” value: -0.00136 for the first, -0.153 for the second.

First: RRIRYRPPRLPRPRPRPGVDPRP
Second: RRIRKRPPRLPRPRPRPARVPRP
The “shrunken log2 fold change” value of the first is lower: -0.0308 for the first, 0.857 for the second.

Compared with RRIRSRPPRLPRPRPRPDDPPRP, RRIRTRPPRLPRPRPRPNMWPRP is lower in “shrunken log2 fold change” value: 0.0348 for the first, -0.365 for the second.

RRIRNRPPRLPRPRPRPDDTPRP and RRIRIRPPRLPRPRPRPGQQPRP are within 0.2 log units of each other in “shrunken log2 fold change” value: 0.0119 for the first, 0.0905 for the second.

First: RRIRGRPPRLPRPRPRPTLGPRP
Second: RRIRWRPPRLPRPRPRPSFLPRP
The “shrunken log2 fold change” value of the first is higher: 0.936 for the first, -0.351 for the second.

Going from RRIRRRPPRLPRPRPRPTYWPRP to RRIRTRPPRLPRPRPRPTRVPRP, the “shrunken log2 fold change” value rises from -0.144 to 0.214.

RRIRHRPPRLPRPRPRPMTRPRP and RRIRKRPPRLPRPRPRPMLQPRP are within 0.2 log units of each other in “shrunken log2 fold change” value: -0.0247 for the first, 0.122 for the second.

Compared with RRIRMRPPRLPRPRPRPGKLPRP, RRIRFRPPRLPRPRPRPYSVPRP is lower in “shrunken log2 fold change” value: 0.515 for the first, 0.062 for the second.

Going from RRIRRRPPRLPRPRPRPCQNPRP to RRIRKRPPRLPRPRPRPPKIPRP, the “shrunken log2 fold change” value rises from -0.0482 to 0.405.

Compared with RRIRLRPPRLPRPRPRPEKPPRP, RRIRWRPPRLPRPRPRPQVWPRP is higher in “shrunken log2 fold change” value: 0.148 for the first, 0.576 for the second.

Going from RRIRNRPPRLPRPRPRPDFMPRP to RRIRTRPPRLPRPRPRPSNDPRP, the “shrunken log2 fold change” value falls from -0.138 to -0.557.

Compared with RRIRHRPPRLPRPRPRPQFNPRP, RRIRTRPPRLPRPRPRPVACPRP is higher in “shrunken log2 fold change” value: -0.619 for the first, -0.0699 for the second.

Going from RRIRYRPPRLPRPRPRPCSVPRP to RRIRGRPPRLPRPRPRPVKWPRP, the “shrunken log2 fold change” value rises from -1.08 to 0.47.

With RRIRTRPPRLPRPRPRPPFPPRP the “shrunken log2 fold change” value was 0.256.
